Results on 6 molecules are retold here after patent publication US20260132197A1 (NANJING LEGEND BIOTECH, published 2026).

Test [1] deals with T1, cynomolgus CD47 on CHO-K1 stable cell line (cynomolgus, UniProt A0A5F8AK49 19-323 (rhesus entry)).
T1 construct: whole, on cells; also called cynomolgus CD47/CHO-K1
As to the kind of experiment: flow cytometry on cynomolgus CD47 CHO-K1 cells.

In test [2] the target is T2, wild type human CD47 (Acro Biosystems, cat. no. CD7-H5227) (human, UniProt Q08722 19-139).
T2 construct: Bought protein used as SPR analyte; also called Human CD47 wt; wild-type CD47
As to the kind of experiment: SPR, IgG captured, CD47 in flow; exp 3.

In test [3] the target is T3, Human CD47-C33G (human, UniProt Q08722 19-135).
T3 construct: also called CD47 mutein with C33G mutation
As to the kind of experiment: SPR, IgG captured, CD47 in flow; exp 3.

In test [4] the target is T2, wild type human CD47 (Acro Biosystems, …). Nature of the test: SPR, IgG captured, CD47 in flow; exp 1.
Test [5] deals with T3, Human CD47-C33G. As to the kind of experiment: SPR, IgG captured, CD47 in flow; exp 1.
For test [6], the target named is T2, wild type human CD47 (Acro Biosystems, …). Nature of the test: SPR, IgG captured, CD47 in flow; exp 3. The source holds these as a separate data set.
Test [7] addresses T3, Human CD47-C33G. As to the kind of experiment: SPR, IgG captured, CD47 in flow; exp 3. This is another data set of the same source.
Test [8] has as its target T2, wild type human CD47 (Acro Biosystems, …). As to the kind of experiment: SPR, IgG captured, CD47 in flow; exp 4.
Test [9] concerns the target T3, Human CD47-C33G. Nature of the test: SPR, IgG captured, CD47 in flow; exp 4.
The target in test [10] is T2, wild type human CD47 (Acro Biosystems, …). As to the kind of experiment: SPR, IgG captured, CD47 in flow; exp 2.
Test [11] deals with T3, Human CD47-C33G. As to the kind of experiment: SPR, IgG captured, CD47 in flow; exp 2.
The target of test [12] is T2, wild type human CD47 (Acro Biosystems, …). As to the kind of experiment: SPR, IgG captured, CD47 in flow; exp 1. The source holds these as a separate data set.
The target of test [13] is T3, Human CD47-C33G. Nature of the test: SPR, IgG captured, CD47 in flow; exp 1. This is another data set of the same source.
The target in test [14] is T2, wild type human CD47 (Acro Biosystems, …). As to the kind of experiment: SPR, IgG captured, CD47 in flow; exp 4. The source holds these as a separate data set.
The target in test [15] is T3, Human CD47-C33G. As to the kind of experiment: SPR, IgG captured, CD47 in flow; exp 4. The source holds these as a separate data set.
The target of test [16] is T2, wild type human CD47 (Acro Biosystems, …). As to the kind of experiment: SPR, IgG captured, CD47 in flow; exp 2. The source holds these as a separate data set.
Test [17] concerns the target T3, Human CD47-C33G. As to the kind of experiment: SPR, IgG captured, CD47 in flow; exp 2. The source holds these as a separate data set.
Test [18] addresses T4, human CD47 on cells (SHP-77 tumor cells, human red blood cells, CCRF-CEM cells, human CD47 CHO-K1 stable cell … (human, UniProt Q08722 19-323)).
T4 construct: whole, on cells; also called RBC
Nature of the test: flow cytometry on SHP-77 cells.

For test [19], the target named is T4, human CD47 on cells (SHP-77 tumor …). Nature of the test: flow cytometry on human CD47 CHO-K1 cells; plateau not reached, not accurate.
For test [20] the target is unchanged. Nature of the test: flow cytometry on human RBCs.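 Further: antibody binding measured by flow cytometry as geometric mean fluorescence intensity over a range of antibody concentrations, with EC50 and maximum taken from a sigmoidal dose-response fit.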
For test [21], the target named is T1, cynomolgus CD47 on CHO-K1 stable cell …. As to the kind of experiment: flow cytometry on cynomolgus CD47 CHO-K1 cells; plateau not reached, not accurate.
Test [22] deals with T4, human CD47 on cells (SHP-77 tumor …). As to the kind of experiment: cell-based or functional assay.
The target is the same in test [23]. As to the kind of experiment: flow cytometry on human CD47 CHO-K1 cells.

B1: Hu5F9 (antibody, V domains shown)
VH: QVQLVQSGAEVKKPGASVKVSCKASGYTFTNYNMHWVRQAPGQRLEWMGTIYPGNDDTSYNQKFKDRVTITADTSASTAYMELSSLRSEDTAVYYCARGGYRAMDYWGQGTLVTVSS
VL: DIVMTQSPLSLPVTPGEPASISCRSSQSIVYSNGNTYLGWYLQKPGQSPQLLIYKVSNRFSGVPDRFSGSGSGTDFTLKISRVEAEDVGVYYCFQGSHVPYTFGQGTKLEIK
As to B1, the midpoint of the response in test [1], the EC50, lay at 0.6 nM.

B2: chimeric antibody 108C10A6 (antibody, V domains shown)
VH: QMQLQQSGPQLVRPGASVKISCKTSGYSFTHHWIHWMKQRPGQGLEWIGMIDPSDSETRLSQKFKDKATLTVDASSSTAYMQLNSPTSEDSALYFCARLGRYYFDYWGQGTTLTVSS
VL: NIVMTQSPRSMSMSVGERVTLSCKASENVGTYISWYQQKPDQSPKLLIYGASNRYTGVPDRFTGSGSGTDFTLTISTVQAEDLADYHCGESYGHLYTFGGGTKLEIK
notes: Chimeric antibody with mouse variable domains; captured through human Fc; also called VH / VL
For the molecule B2, the Kd in test [2] was 0.2 nM; in test [3], 0.95 nM; in test [4] it was 0.2 nM; in test [5], 0.92 nM; in test [6], 0.2 nM; in test [7] it was 0.95 nM. In addition, the Kd in test [8] came to 0.17 nM; in test [9], 0.67 nM; in [10], 0.19 nM; in test [11] it was 1 nM; in [12], 0.19 nM; in test [13], 1 nM. In addition, the Kd in test [14] is 0.17 nM; in test [15] it was 0.67 nM; in test [16], 0.21 nM; in test [17] it was 1.3 nM. The koff in test [2] was found to be 0.00032 s⁻¹; in test [3], 0.00063 s⁻¹; in test [4], 0.00032 s⁻¹; in test [5] it was 0.00068 s⁻¹; in test [6], 0.00032 s⁻¹; in test [7] it was 0.00063 s⁻¹. The koff in [8] is 0.0003 s⁻¹; in [9] it was 0.00061 s⁻¹; in test [10], 0.00032 s⁻¹; in test [11] it was 0.00073 s⁻¹; in [12], 0.00032 s⁻¹; in test [13], 0.00073 s⁻¹. In addition, the koff in test [14] is 0.0003 s⁻¹; in [15], 0.00061 s⁻¹; in test [16], 0.00034 s⁻¹; in test [17] it was 0.00074 s⁻¹. In addition, the kon in test [2] is 1.6e+06 M⁻¹ s⁻¹; in [3], 660000 M⁻¹ s⁻¹; in test [4], 1.5e+06 M⁻¹ s⁻¹; in test [5], 740000 M⁻¹ s⁻¹; in test [6], 1.6e+06 M⁻¹ s⁻¹; in [7], 660000 M⁻¹ s⁻¹. The kon is 1.8e+06 M⁻¹ s⁻¹ in test [8]; 920000 M⁻¹ s⁻¹ in test [9]; 1.6e+06 M⁻¹ s⁻¹ in test [10]; 720000 M⁻¹ s⁻¹ in test [11]; 1.6e+06 M⁻¹ s⁻¹ in [12]; 720000 M⁻¹ s⁻¹ in [13]. Further, the kon amounted to 1.8e+06 M⁻¹ s⁻¹ in test [14], 920000 M⁻¹ s⁻¹ in [15], 1.6e+06 M⁻¹ s⁻¹ in [16] and 590000 M⁻¹ s⁻¹ in test [17].

B3: 108VH5.M6 / 108VL1.M5 (antibody, human IgG4 S228P, kappa, V domains shown)
VH: EVQLVQSGAEVKKPGASVKVSCKASGYTFTHHYMHWVRQAPGQGLEWMGMIDASDSETRLSQKFKDRVTMTRDTSTSTVYMELSSLRSEDTAVYYCARLGRYYFDYWGQGTLVTVSS
VL: EIVLTQSPATLSLSPGERATLSCRASQSVSSYLAWYQQKPGQAPRLLIYGASNRATGIPARFSGSGSGTDFTLTISSLEPEDFAVYYCGESYGHLYTFGGGTKVEIKR
notes: Full-length IgG4 (S228P), kappa; also called VH5.M6 VL1.M5
Turning to B3, the concentration giving a half-maximal response (EC50) in [18] came out at 25.1 nM; in test [19] it was 20 nM; in test [20], 11.1 nM; in [21], 22.5 nM. For the same molecule, the “Fitted Maximal MFI” value in test [18] was 6250 MFI; in [20] it was 9460 MFI. Moreover, the Kd in test [4] was found to be 8 nM; in [5] it was 800 nM. The koff in [4] was 0.0039 s⁻¹; in test [5], 0.097 s⁻¹. In addition, the kon was found to be 490000 M⁻¹ s⁻¹ in [4] and 120000 M⁻¹ s⁻¹ in test [5].

B4: 108VH5.M27 / 108VL1.M5 (antibody, human IgG4 S228P, kappa, V domains shown)
VH: EVQLVQSGAEVKKPGASVKVSCKASGYTFTHHWMHWVRQAPGQGLEWMGMIDASDYETRYAQKFQGRVTMTRDTSTSTVYMELSSLRSEDTAVYYCARLGRYYFDYWGQGTLVTVSS
VL: EIVLTQSPATLSLSPGERATLSCRASQSVSSYLAWYQQKPGQAPRLLIYGASNRATGIPARFSGSGSGTDFTLTISSLEPEDFAVYYCGESYGHLYTFGGGTKVEIKR
notes: Full-length IgG4 (S228P), kappa; also called VH5.M27 VL1.M5
For the molecule B4, in [22], the “CCRF-CEM phagocytosis EC50” value amounted to 0.28 nM and the “CCRF-CEM phagocytosis, Phagocytosis (%)” value amounted to 64.3%. Besides, in [18], the response was half-maximal at 9 nM (EC50) and the “Fitted Maximal MFI” value amounted to 36500 MFI. In test [1], this molecule displayed an EC50 of 3.4 nM. The same molecule returned an EC50 in [23] of 2.6 nM. Moreover, in test [8], the Kd came to 7.4 nM, the koff is 0.0036 s⁻¹ and the kon turned out to be 490000 M⁻¹ s⁻¹. In test [9], this molecule yielded a Kd of 39 nM, an off-rate (koff) of 0.0085 s⁻¹ and an association rate constant (kon) of 220000 M⁻¹ s⁻¹. In test [20], the midpoint of the response, the EC50, lay at 4.7 nM and the “Fitted Maximal MFI” value came to 26900 MFI.

B5: 108VH5.M23 / 108VL1.M5 (antibody, human IgG4 S228P, kappa, V domains shown)
VH: EVQLVQSGAEVKKPGASVKVSCKASGYTFTHHWMHWVRQAPGQGLEWMGMIDASDKETRYAQKFQGRVTMTRDTSTSTVYMELSSLRSEDTAVYYCARLGRYYFDYWGQGTLVTVSS
VL: EIVLTQSPATLSLSPGERATLSCRASQSVSSYLAWYQQKPGQAPRLLIYGASNRATGIPARFSGSGSGTDFTLTISSLEPEDFAVYYCGESYGHLYTFGGGTKVEIKR
notes: Full-length IgG4 (S228P), kappa; also called VH5.M23 VL1.M5
Turning to B5, in [22], the “CCRF-CEM phagocytosis EC50” value was found to be 0.33 nM and the “CCRF-CEM phagocytosis, Phagocytosis (%)” value was determined as 64%. For the same molecule, in test [18], a half-maximal effect (EC50) was put at 8.1 nM and the “Fitted Maximal MFI” value was 42100 MFI. This molecule registered an EC50 in [1] of 3.2 nM. The molecule further had an EC50 in test [23] of 2.7 nM. In addition, in test [8], the Kd is 6.4 nM, the koff was 0.0028 s⁻¹ and the kon came to 440000 M⁻¹ s⁻¹. Further, in test [9], the Kd was determined as 33 nM, the koff is 0.0058 s⁻¹ and the kon stood at 170000 M⁻¹ s⁻¹. Moreover, in [20], the midpoint of the response, the EC50, lay at 5.8 nM and the “Fitted Maximal MFI” value amounted to 38800 MFI.

B6: 108VH10.Mk / 108VL10.Me (antibody, V domains shown)
VH: EVQLVESGGGLVQPGGSLRLSCAASGFTFSHHWIHWVRQAPGKGLEWVAMIDASDSETRLSQKVKDRFTISADTSKNTAYLQMNSLRAEDTAVYYCSRLGRYYFDYWGQGTLVTVSS
VL: DIQMTQSPSSLSASVGDRVTITCRASQSISSYLNWYQQKPGKAPKLLIYGASSRYSGVPSRFSGSRSGTDFTLTISSLQPEDFATYYCGESYGHLYTFGQGTKVEIK
notes: 4D5-framework series; also called VH10.Mk VL10.Me
Consider B6, for which, in test [22], the “CCRF-CEM phagocytosis EC50” value amounted to 0.29 nM and the “CCRF-CEM phagocytosis, Phagocytosis (%)” value worked out at 57.6%. In [2], this molecule showed a Kd of 9 nM, a koff of 0.0086 s⁻¹ and a kon of 950000 M⁻¹ s⁻¹. In [3], the affinity, expressed as Kd, was 87 nM; the dissociation rate constant (koff) was found to be 0.019 s⁻¹; the kon stood at 210000 M⁻¹ s⁻¹. Further, in [18], the EC50 worked out at 5.3 nM and the “Fitted Maximal MFI” value was 30000 MFI. In [19], the EC50 stood at 5.4 nM. Moreover, in test [20], the midpoint of the response, the EC50, lay at 3.9 nM and the “Fitted Maximal MFI” value was 21700 MFI. Moreover, the EC50 in test [21] is 6.4 nM.
